The Human Domainome abundance scans (Beltran et al. 2025)
± gives the uncertainty stated by the source.

B1: Syntaxin-binding protein 4, residues 493 to 538; numbered along this chain, Q6ZWJ1 (parent)
chain: LDMDCLPYGWEEAYTADGIKYFINHVTQTTSWIHPVMSVLNLSRSE
B2: POU domain, class 4, transcription factor 1, residues 266 to 347; numbered along this chain, Q01851 (parent)
chain: RELEAFAERFKQRRIKLGVTQADVGSALANLKIPGVGSLSQSTICRFESLTLSHNNMIALKPILQAWLEEAEGAQREKMNKP

Variants of: B1
Experiment: abundance fitness (aPCA) (normalised: wild type 0, dead -1); higher = more abundant; growth selection in yeast, the domain comes from the species named
Details: Homo sapiens

Variant	abundance fitness
D2Q	-0.48 ± 0.12
D2T	-0.334 ± 0.12
D2I	-0.698 ± 0.16
D2P	-0.985 ± 0.16
D2S	-0.478 ± 0.096
D2M	-0.334 ± 0.14
D2G	-0.366 ± 0.082
D2V	-0.576 ± 0.086
D2A	-0.445 ± 0.084
D2E	-0.206 ± 0.097
D2L	-0.424 ± 0.093
D2K	-0.269 ± 0.14
D2F	-0.849 ± 0.13
D2C	-0.699 ± 0.12
D2R	-0.603 ± 0.09
M3Q	0.065 ± 0.11
M3E	0.144 ± 0.088
M3Y	-0.458 ± 0.12
M3G	-0.084 ± 0.075
M3D	-0.103 ± 0.096

Variant	abundance fitness
M3H	-0.117 ± 0.099
M3N	0.354 ± 0.1
M3W	-0.692 ± 0.11
M3T	0.287 ± 0.086
M3I	-0.425 ± 0.11
M3A	-0.058 ± 0.078
M3C	0.117 ± 0.089
M3F	-0.069 ± 0.13
M3L	-0.036 ± 0.08
M3R	0.027 ± 0.076
L1K	0.331 ± 0.23
L1Y	-0.198 ± 0.21
L1W	-0.334 ± 0.15
L1G	-0.525 ± 0.21
L1E	0.068 ± 0.21
L1H	-0.269 ± 0.33
L1F	-0.163 ± 0.17
L1T	-0.004 ± 0.27
L1N	-0.101 ± 0.39
L1R	-0.874 ± 0.5

Variant	abundance fitness
L1M	0.148 ± 0.13
L1S	0.28 ± 0.13
D4T	-0.535 ± 0.11
D4A	-0.561 ± 0.085
D4E	-0.16 ± 0.1
D4R	-0.545 ± 0.083
D4N	-0.098 ± 0.088
D4W	-0.499 ± 0.097
D4K	-0.543 ± 0.11
D4L	-0.638 ± 0.094
D4G	-0.348 ± 0.077
D4S	-0.221 ± 0.082
D4F	-0.613 ± 0.16
D4C	-0.354 ± 0.11
D4V	-0.766 ± 0.092
D4H	-0.835 ± 0.17
D4Y	-0.863 ± 0.15
D4I	-0.639 ± 0.17
D4P	-0.511 ± 0.13

Variants of: B2
Experiment: as above
Details: Homo sapiens

Variant	abundance fitness
S49Q	0.052 ± 0.043
S49T	0.001 ± 0.035
L28V	-0.074 ± 0.025
N30Y	0.033 ± 0.34
N30M	-0.104 ± 0.09
N30I	0.054 ± 0.13
E8P	-0.749 ± 0.2
R9H	-0.003 ± 0.14
L60I	-0.303 ± 0.23
K81I	-0.112 ± 0.32
F10P	-0.908 ± 0.08
F10D	-0.804 ± 0.076
F10S	-0.914 ± 0.055
L64Q	-0.533 ± 0.18
L64I	-0.339 ± 0.26
A29I	-0.019 ± 0.13
A29C	0.128 ± 0.36
G73F	-0.056 ± 0.16
G73P	-0.259 ± 0.22
G73N	0.003 ± 0.15
L52H	-0.234 ± 0.2
I15M	0.005 ± 0.038

Variant	abundance fitness
I15Y	-0.332 ± 0.046
G18C	-0.475 ± 0.32
L68C	-0.29 ± 0.08
W67G	-0.727 ± 0.071
W67C	-0.939 ± 0.32
E69V	-0.073 ± 0.043
E77W	-0.145 ± 0.035
Q75E	-0.01 ± 0.048
T51P	-0.877 ± 0.085
P62I	-0.816 ± 0.25
N80V	0.098 ± 0.042
N80F	-0.043 ± 0.065
N80W	-0.089 ± 0.045
A7C	-0.018 ± 0.037
A7R	-0.594 ± 0.028
A7K	-0.489 ± 0.04
Q65I	-0.105 ± 0.045
I33K	-0.203 ± 0.042
Q21M	-0.111 ± 0.072
Q21V	-0.083 ± 0.046
Q21A	-0.044 ± 0.046
T20V	-0.567 ± 0.28

Variant	abundance fitness
T20E	-0.124 ± 0.094
G37Q	-0.121 ± 0.042
S53D	-0.136 ± 0.075
S53G	-0.039 ± 0.038
M79Y	-0.011 ± 0.052
M79R	-0.025 ± 0.021
I63N	-0.17 ± 0.11
I63P	-0.203 ± 0.081
D23M	-0.022 ± 0.1
D23C	-0.185 ± 0.098
K16H	-0.029 ± 0.034
K16L	-0.071 ± 0.025
E2C	-0.306 ± 0.046
E2M	-0.17 ± 0.036
E4C	-0.149 ± 0.079
E4F	-0.054 ± 0.08
L50G	0.049 ± 0.038
L50D	-0.425 ± 0.053
H54Y	0.057 ± 0.088
N56W	-0.062 ± 0.049
N56M	0.078 ± 0.075
A27P	-1.23 ± 0.27

Variant	abundance fitness
A22H	0.01 ± 0.14
A22Y	0.043 ± 0.12
P82V	-0.053 ± 0.095
P82L	-0.123 ± 0.18
P82K	-0.047 ± 0.16
P82A	0.086 ± 0.079
R14W	-1.02 ± 0.098
K11Q	-0.107 ± 0.12
S26Y	0.126 ± 0.1
I44V	0.029 ± 0.044
L39Y	-0.277 ± 0.11
L39I	0.042 ± 0.13
A59Y	-0.072 ± 0.12
A59G	-0.103 ± 0.037
A59T	-0.011 ± 0.061
E48N	-0.973 ± 0.11
F6P	-0.951 ± 0.071
F6T	-0.452 ± 0.037
F6K	-1 ± 0.086
T43L	0.053 ± 0.056
E72G	-0.267 ± 0.046
L31H	-0.014 ± 0.058

Variant	abundance fitness
L31I	-0.028 ± 0.052
V36E	-0.125 ± 0.086
V36C	-0.225 ± 0.18
R1N	0.02 ± 0.05
G35I	0.268 ± 0.49
G25E	0.05 ± 0.054
G25T	-0.012 ± 0.076
G25V	0.068 ± 0.04
A74M	-0.016 ± 0.032
S40G	-0.058 ± 0.035
S40W	-0.369 ± 0.076
S40V	-0.331 ± 0.055
S40N	-0.05 ± 0.1
S40Q	-0.072 ± 0.075
S40L	-0.238 ± 0.052
K32G	-0.101 ± 0.054
K32V	-0.009 ± 0.059
A71I	-0.18 ± 0.19
L17Q	-0.668 ± 0.052
L17M	-0.072 ± 0.037
